Assay results taken from article PMC4149788 (The Febs Journal, 2014).

Biological target: GST-HAUSP (human, UniProt Q93009 1-1102)
Assay: pull-down

GST-HAUSP, sequence (Q93009 whole entry): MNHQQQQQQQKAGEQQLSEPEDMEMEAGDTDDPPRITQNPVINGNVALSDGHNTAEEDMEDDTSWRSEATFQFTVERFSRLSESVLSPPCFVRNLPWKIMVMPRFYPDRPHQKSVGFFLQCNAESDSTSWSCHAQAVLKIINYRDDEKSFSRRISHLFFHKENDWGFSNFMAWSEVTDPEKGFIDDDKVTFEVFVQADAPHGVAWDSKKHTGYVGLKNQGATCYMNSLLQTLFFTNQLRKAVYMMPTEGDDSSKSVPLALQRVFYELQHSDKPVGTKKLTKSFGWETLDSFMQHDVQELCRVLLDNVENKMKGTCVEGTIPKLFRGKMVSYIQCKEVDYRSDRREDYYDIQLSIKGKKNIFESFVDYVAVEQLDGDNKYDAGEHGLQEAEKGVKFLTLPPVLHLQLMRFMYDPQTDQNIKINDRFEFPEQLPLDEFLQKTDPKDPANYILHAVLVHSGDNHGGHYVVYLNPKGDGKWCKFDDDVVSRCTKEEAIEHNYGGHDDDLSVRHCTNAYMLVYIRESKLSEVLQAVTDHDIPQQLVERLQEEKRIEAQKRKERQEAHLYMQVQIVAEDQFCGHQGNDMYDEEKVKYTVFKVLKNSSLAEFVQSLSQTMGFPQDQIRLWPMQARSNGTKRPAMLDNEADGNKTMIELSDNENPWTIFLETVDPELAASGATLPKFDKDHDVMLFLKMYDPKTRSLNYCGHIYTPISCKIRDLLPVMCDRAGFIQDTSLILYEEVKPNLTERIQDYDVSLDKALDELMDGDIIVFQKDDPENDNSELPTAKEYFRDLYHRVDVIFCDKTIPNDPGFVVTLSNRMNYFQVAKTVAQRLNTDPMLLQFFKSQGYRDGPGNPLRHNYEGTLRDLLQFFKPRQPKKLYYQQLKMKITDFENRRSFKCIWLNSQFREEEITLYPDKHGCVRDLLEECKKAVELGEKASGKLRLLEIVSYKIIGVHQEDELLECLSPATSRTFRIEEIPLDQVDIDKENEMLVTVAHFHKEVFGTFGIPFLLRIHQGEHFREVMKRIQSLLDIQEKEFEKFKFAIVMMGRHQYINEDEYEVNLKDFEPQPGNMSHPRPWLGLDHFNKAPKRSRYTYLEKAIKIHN

B1: Myc/His-Rb (Rb in pcDNA3.1-Myc/His B(-)) (natural protein, human, UniProt P06400 1-928, looked up)
chain: MPPKTPRKTAATAAAAAAEPPAPPPPPPPEEDPEQDSGPEDLPLVRLEFEETEEPDFTALCQKLKIPDHVRERAWLTWEKVSSVDGVLGGYIQKKKELWGICIFIAAVDLDEMSFTFTELQKNIEISVHKFFNLLKEIDTSTKVDNAMSRLLKKYDVLFALFSKLERTCELIYLTQPSSSISTEINSALVLKVSWITFLLAKGEVLQMEDDLVISFQLMLCVLDYFIKLSPPMLLKEPYKTAVIPINGSPRTPRRGQNRSARIAKQLENDTRIIEVLCKEHECNIDEVKNVYFKNFIPFMNSLGLVTSNGLPEVENLSKRYEEIYLKNKDLDARLFLDHDKTLQTDSIDSFETQRTPRKSNLDEEVNVIPPHTPVRTVMNTIQQLMMILNSASDQPSENLISYFNNCTVNPKESILKRVKDIGYIFKEKFAKAVGQGCVEIGSQRYKLGVRLYYRVMESMLKSEEERLSIQNFSKLLNDNIFHMSLLACALEVVMATYSRSTSQNLDSGTDLSFPWILNVLNLKAFDFYKVIESFIKAEGNLTREMIKHLERCEHRIMESLAWLSDSPLFDLIKQSKDREGPTDHLESACPLNLPLQNNHTAADMYLSPVRSPKKKGSTTRVNSTANAETQATSAFQTQKPLKSTSLSLFYKKVYRLAYLRLNTLCERLLSEHPELEHIIWTLFQHTLQNEYELMRDRHLDQIMMCSMYGICKVKNIDLKFKIIVTAYKDLPHAVQETFKRVLIKEEEYDSIIVFYNSVFMQRLKTNILQYASTRPPTLSPIPHIPRSPYKFPSSPLRIPGGNIYISPLKSPYKISEGLPTPTKMTPRSRILVSIGESFGTSEKFQKINQMVCNSDRVLKRSAEGSNPPKPLKKLRFDIEGSDEADGSKHLPGESKFQQKLAEMTSTRTRMQKQKMNDSMDTSNKEEK
binding result: binds
